Key:
[1] = target: T1, human plasma-derived FIXa (Haematologic Technologies Inc) (human, UniProt P00740 47-191; P00740 227-461); experiment: cell-based or functional assay
[2] = target: T1, human plasma-derived FIXa (Haematologic …); experiment: cell-based or functional assay; remark: listed apart in the source

T1 sequence (P00740 47-191, chain 1 of 2): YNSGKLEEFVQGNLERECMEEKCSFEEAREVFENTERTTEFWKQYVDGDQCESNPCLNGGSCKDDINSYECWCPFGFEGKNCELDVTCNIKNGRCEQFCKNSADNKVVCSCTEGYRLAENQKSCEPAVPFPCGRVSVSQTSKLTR
T1 sequence (P00740 227-461, chain 2 of 2): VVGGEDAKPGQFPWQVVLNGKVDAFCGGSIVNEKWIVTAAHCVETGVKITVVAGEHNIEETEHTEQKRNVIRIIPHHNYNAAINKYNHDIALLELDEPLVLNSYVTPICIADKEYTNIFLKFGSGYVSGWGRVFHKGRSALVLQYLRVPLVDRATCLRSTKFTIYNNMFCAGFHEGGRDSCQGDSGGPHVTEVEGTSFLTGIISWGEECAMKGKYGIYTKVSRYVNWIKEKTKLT

B1: mAb4-5344 (monovalent one-armed version of mAb1-6592) (antibody, V domains shown)
VH: EVQLVQSGAEVKKPGESLRISCKGSGYSFRPYWIGWVRQMPGKGLEWMGMIDPSDSYTDYGPSFRGHVTISADKSISTAYLQWSSLKASDTAMYYCARVRIRAGAFDIWGQGTMVTVSS
VL: DIVMTQSPLSLPVTPGEPASISCRSSQSLLHSTWYNYLNWYLQKPGQSPQLLIYLGSRRASGVPDRFSGSGSGTDFTLKISRVEAEDVGVYYCMQVLHIPYTFGQGTKLEIK
- Stimulation index at 800 nM OA antibody [1]: 916 fold

B2: mAb4-7758 (bispecific, mAb1-6584/mAb1-6097) (bispecific antibody, V domains shown)
VH 1: EVQLVQSGAEVKKPGESLRISCKGSGYSFRPYWIGWVRQMPGKGLEWMGMIDPSDSYTDYGPSFRGHVTISADKSISTAYLQWSSLKASDTAMYYCARVRIRAGAFDIWGQGTMVTVSS
VL 1: DIVMTQSPLSLPVTPGEPASISCRSSQSLLHSTWYNYLNWYLQKPGQSPQLLIYLGKNRASGVPDRFSGSGSGTDFTLKISRVEAEDVGVYYCMQVLHIPYTFGQGTKLEIK
VH 2: EVQLVESGGGLVKPGGSLRLSCAASGFTFSNAHMNWVRQAPGKGLEWVGRIKRKTDGGTTDYAAPVKGRFTISRDDSKNTLYLQMNSLKTEDTAVYYCTTDGIAVAGPLRVYWGQGTLVTVSS
VL 2: not shown
- Maximum stimulation (fold), at 633 nM BiAb [2]: 2810 fold

B3: mAb4-5347 (monovalent one-armed version of mAb1-6582) (antibody, V domains shown)
VH: EVQLVQSGAEVKKPGESLRISCKGSGYSFRPYWIGWVRQMPGKGLEWMGMIDPSDSYTDYGPSFEGHVTISADKSISTAYLQWSSLKASDTAMYYCARVRIRAGAFDIWGQGTMVTVSS
VL: DIVMTQSPLSLPVTPGEPASISCRSSQSLLHSTWYNYLNWYLQKPGQSPQLLIYLGKNRASGVPDRFSGSGSGTDFTLKISRVEAEDVGVYYCMQVLHIPYTFGQGTKLEIK
- Stimulation index at 800 nM OA antibody [1]: 692 fold

B4: mAb4-5355 (monovalent one-armed version of mAb1-6584) (antibody, V domains shown)
VH: EVQLVQSGAEVKKPGESLRISCKGSGYSFRPYWIGWVRQMPGKGLEWMGMIDPSDSYTDYGPSFRGHVTISADKSISTAYLQWSSLKASDTAMYYCARVRIRAGAFDIWGQGTMVTVSS
VL: DIVMTQSPLSLPVTPGEPASISCRSSQSLLHSTWYNYLNWYLQKPGQSPQLLIYLGKNRASGVPDRFSGSGSGTDFTLKISRVEAEDVGVYYCMQVLHIPYTFGQGTKLEIK
- Stimulation index at 800 nM OA antibody [1]: 580 fold

B5: mAb4-5357 (monovalent one-armed version of mAb1-6590) (antibody, V domains shown)
VH: EVQLVQSGAEVKKPGESLRISCKGSGYSFRPYWIGWVRQMPGKGLEWMGMIDPSDSYTDYGPSFEGHVTISADKSISTAYLQWSSLKASDTAMYYCARVRIRAGAFDIWGQGTMVTVSS
VL: DIVMTQSPLSLPVTPGEPASISCRSSQSLLHSTWYNYLNWYLQKPGQSPQLLIYLGSRRASGVPDRFSGSGSGTDFTLKISRVEAEDVGVYYCMQVLHIPYTFGQGTKLEIK
- Stimulation index at 800 nM OA antibody [1]: 1290 fold

B6: mAb4-5337 (monovalent one-armed version of mAb1-6566) (antibody, V domains shown)
VH: EVQLVQSGAEVKKPGESLRISCKGSGYSFRPYWIGWVRQMPGKGLEWMGMIDPSDSYTDYGPSFEGHVTISADKSISTAYLQWSSLKASDTAMYYCARVRIRAGAFDIWGQGTMVTVSS
VL: DIVMTQSPLSLPVTPGEPASISCRSSQSLLHRTWYNYLNWYLQKPGQSPQLLIYLGRNRASGVPDRFSGSGSGTDFTLKISRVEAEDVGVYYCMQVLHIPYTFGQGTKLEIK
- Stimulation index at 204 nM OA antibody [1]: 690 fold

B7: mAb4-7756 (bispecific, mAb1-6584/mAb1-6723) (bispecific antibody, V domains shown)
VH 1: EVQLVQSGAEVKKPGESLRISCKGSGYSFRPYWIGWVRQMPGKGLEWMGMIDPSDSYTDYGPSFRGHVTISADKSISTAYLQWSSLKASDTAMYYCARVRIRAGAFDIWGQGTMVTVSS
VL 1: DIVMTQSPLSLPVTPGEPASISCRSSQSLLHSTWYNYLNWYLQKPGQSPQLLIYLGKNRASGVPDRFSGSGSGTDFTLKISRVEAEDVGVYYCMQVLHIPYTFGQGTKLEIK
VH 2: EVQLVQSGAEVKKPGESLRISCKGSGYSFTTSWIVWVRQMPGKGLEWMGMIDPSDSFTSYSPSFQGHVTISADKSISTAYLQWSSLKASDTAMYYCARLHYYHSEEFDVWGQGTLVTVSS
VL 2: EIVLTQSPGTLSLSPGERATLSCRASQSVSSSYLAWYQQKPGQAPRLLIYGASSRARGIPDRFSGSGSGTDFTLTISRLEPEDFAVYYCQQFGSSRLFTFGQGTKLEIK
- Maximum stimulation (fold), at 1520 nM BiAb [2]: 2600 fold

B8: mAb4-5342 (monovalent one-armed version of mAb1-6586) (antibody, V domains shown)
VH: EVQLVQSGAEVKKPGESLRISCKGSGYRFTSYWIGWVRQMPGKGLEWMGMIDPTDSYTDYGPSFHGHVTISADKSISTAYLQWSSLKASDTAMYYCARMRIMSGAFDIWGQGTMVTVSS
VL: DIVMTQSPLSLPVTPGEPASISCRSSQSLLHSTWYNYLNWYLQKPGQSPQLLIYLGKNRASGVPDRFSGSGSGTDFTLKISRVEAEDVGVYYCMQVLHIPYTFGQGTKLEIK
- Stimulation index at 800 nM OA antibody [1]: 94 fold

B9: mAb5-0057 (bispecific, mAb1-8768/mAb1-6723) (bispecific antibody, V domains shown)
VH 1: EVQLVESGGGLVQPGRSLKLSCAASGFTFHDYAMHWVRQVPGKGLEWVSGISWRGDIIGYVDSVKGRFTISRDNAKNSLYLQLNSLRAEDTALYYCVKSYGSGSFYNAFDSWGQGTLVTVSS
VL 1: DIQMTQSPSTLSASAGDRVTITCRASQSISSWLAWYQQKPGKAPKFLIYKASRLDRGTPSRFSGSGSGTEFSLTISSLQPDDFATYYCLEYSSYIRTFGQGTKVEIK
VH 2: EVQLVQSGAEVKKPGESLRISCKGSGYSFTTSWIVWVRQMPGKGLEWMGMIDPSDSFTSYSPSFQGHVTISADKSISTAYLQWSSLKASDTAMYYCARLHYYHSEEFDVWGQGTLVTVSS
VL 2: EIVLTQSPGTLSLSPGERATLSCRASQSVSSSYLAWYQQKPGQAPRLLIYGASSRARGIPDRFSGSGSGTDFTLTISRLEPEDFAVYYCQQFGSSRLFTFGQGTKLEIK
- Maximum stimulation (fold), at 1218 nM BiAb [2]: 10800 fold

B10: mAb5-1409 (bispecific, mAb1-8768/mAb1-7503) (bispecific antibody, V domains shown)
VH 1: EVQLVESGGGLVQPGRSLKLSCAASGFTFHDYAMHWVRQVPGKGLEWVSGISWRGDIIGYVDSVKGRFTISRDNAKNSLYLQLNSLRAEDTALYYCVKSYGSGSFYNAFDSWGQGTLVTVSS
VL 1: DIQMTQSPSTLSASAGDRVTITCRASQSISSWLAWYQQKPGKAPKFLIYKASRLDRGTPSRFSGSGSGTEFSLTISSLQPDDFATYYCLEYSSYIRTFGQGTKVEIK
VH 2: EVQLVQSGAEVKKPGESLRISCKGSGYSFTTSWIVWVRQMPGKGLEWMGMIDPSDSFTSYSPSFQGHVTISADKSISTAYLQWSSLKASDTAMYYCARLHYYHSEEFDVWGQGTLVTVSS
VL 2: EIVLTQSPGTLSLSPGERATLSCRASQSVSSSYLAWYQQKPGQAPRLLIYGASSRTRGIPDRFSGSGSGTDFTLTISRLEPEDFAVYYCQQFGSSRLFTFGEGTKLEIK
- Maximum stimulation (fold), at 1115 nM BiAb [2]: 11000 fold

B11: mAb4-7687 (bispecific, mAb1-6037/mAb1-6723) (bispecific antibody, V domains shown)
VH 1: EVQLVESGGGLVQPGRSLKLSCAASGFTFDDYAMHWVRQVPGKGLEWVSGISWRGDIIGYVDSVKGRFTISRDNAKNSLYLQLNSLRAEDTALYYCVKSYGSGSFYNAFDSWGQGTLVTVSS
VL 1: DIQMTQSPSTLSASAGDRVTITCRASQSISEWLAWYQQKPGKAPKFLIYKASRLDRGVPSRFSGSGSGTEFSLTISSLQPDDFATYYCLEYSSYIRTFGQGTKVEIK
VH 2: EVQLVQSGAEVKKPGESLRISCKGSGYSFTTSWIVWVRQMPGKGLEWMGMIDPSDSFTSYSPSFQGHVTISADKSISTAYLQWSSLKASDTAMYYCARLHYYHSEEFDVWGQGTLVTVSS
VL 2: EIVLTQSPGTLSLSPGERATLSCRASQSVSSSYLAWYQQKPGQAPRLLIYGASSRARGIPDRFSGSGSGTDFTLTISRLEPEDFAVYYCQQFGSSRLFTFGQGTKLEIK
- Maximum stimulation (fold), at 1650 nM BiAb [2]: 2490 fold
